Results as given in PMC3404820.

Biological target: amphiphilic diblock polypeptide (ADP) derived from elastin-mimetic sequences, unlabeled
Assay: dynamic light scattering

- stoichiometry N (chains per micelle): 106
B1: amphiphilic diblock polypeptide (ADP) derived from elastin-mimetic sequences, unlabeled (protein)
chain: VPGVGVPGEGVPGVGVPGEGVPGVGVPGVGVPGEGVPGVGVPGEGVPGVGVPGVGVPGEGVPGVGVPGEGVPGVGVPGVGVPGEGVPGVGVPGEGVPGVGVPGVGVPGEGVPGVGVPGEGVPGVGVPGVGVPGEGVPGVGVPGEGVPGVGVPGVGVPGEGVPGVGVPGEGVPGVGVPGVGVPGEGVPGVGVPGEGVPGVGVPGVGVPGEGVPGVGVPGEGVPGVGVPGVGVPGEGVPGVGVPGEGVPGVGIPGVGIPGVGVPGYGIPGVGIPGVGIPGVGIPGVGVPGYGIPGVGIPGVGIPGVGIPGVGVPGYGIPGVGIPGVGIPGVGIPGVGVPGYGIPGVGIPGVGIPGVGIPGVGVPGYGIPGVGIPGVGIPGVGIPGVGVPGYGIPGVGIPGVGIPGVGIPGVGVPGYGIPGVGIPGVGIPGVGIPGVGVPGYGIPGVGIPGVGIPGVGIPGVGVPGYGIPGVGIPGVGIPGVGIPGVGVPGYGIPGVGIPGVGIPGVGIPGVGVPGYGIPGVGIPGVGIPGVGIPGVGVPGYGIPGVGIPGVGIPGVGIPGVGVPGYGIPGVGIPGVGIPGVGIPGVGVPGYGIPGVGIPGVGIPGVGIPGVGVPGYGIPGVGIPGVG
modifications: not checked
